Reference: paper PMC9097884 (2022)

Target: SARS-CoV-2 S1 (residues 1-682, Wuhan-Hu-1) (SARS-CoV-2 (Wuhan-Hu-1 strain), UniProt P0DTC2 14-682)
Assay: BLI

B1: 87G7 human monoclonal antibody (recombinant human IgG1/kappa) (antibody, V domains shown)
VH: EVQLLESGGGLVQPGGSLRLSCVASGFTFSSYVMSWVRQAPGKGLEWVAAISGSGGNTYYADSVKGRFTISRDNSKNTLYLQMNSLRAEDTAVYYCAKEGTYYYGSGSFWGQGTLVTVSS
VL: EIVLTQSPATLSLSPGERATLSCRASQSFHNYLAWYQQKPGRAPRLLIFDASNRATGIPARFSGSGSGTDFTLTISSLEPEDFAVYYCQQRFNWPLTFGGGTKVEIK
**Q.** For B1, which Kd is on record?
**A.** 2.89 nM
